Measurements: paper PMC3558466, “An Enzyme-Catalyzed Multistep DNA Refolding Mechanism in Hairpin Telomere Formation” (PLoS Biology, 2013)

Target: the molecule itself
Assay: crystal structure; TelA-DNA complexes (equal moles of protein monomer and DNA half-site), hanging drop vapor diffusion at 20°C, 5% PEG 4000, 10 mM Tris-HCl pH 7.4, 300 mM NaCl; one TelA per asymmetric unit, the dimer is generated by the crystallographic dyad; TelA is bound to DNA

Protein	stoichiometry N
Selenomethionine-labeled TelA (enzyme, Agrobacterium tumefaciens C58, UniProt Q7CWV1 1-442, looked up, selenomethionine-labeled (eleven selenium sites per TelA monomer located), Protelomerase TelA, Agrobacterium tumefaciens C58, gene locus Atu_2523, full-length 442 residues; model covers residues 102-421; Phosphotyrosine complex trapped with the nicked suicide substrate DNAc; used for SAD phasing; also called SeMet-TelA; source: E. coli methionine auxotroph strain B834(DE3), selenomethionine-labeled; not shown: His-tag (20 residues), N-terminal, kept) MLAAKRKTKTPVLVERIDQFVGQIKEAMKSDDASRNRKIRDLWDAEVRYHFDNGRTEKTLELYIMKYRNALKAEFGPKSTPLAICNMKKLRERLNTYIARGDYPKTGVATSIVEKIERAEFNTAGRKPTVLLRIADFIAAMNGMDAKQDMQALWDAEIAIMNGRAQTTIISYITKYRNAIREAFGDDHPMLKIATGDAAMYDEARRVKMEKIANKHGALITFENYRQVLKICEDCLKSSDPLMIGIGLIGMTGRRPYEVFTQAEFSPAPYGKGVSKWSILFNGQAKTKQGEGTKFGITYEIPVLTRSETVLAAYKRLRESGQGKLWHGMSIDDFSSETRLLLRDTVFNLFEDVWPKEELPKPYGLRHLYAEVAYHNFAPPHVTKNSYFAAILGHNNNDLETSLSYMTYTLPEDRDNALARLKRTNERTLQQMATIAPVSRKG	2
TelA R255A (enzyme, source: E. coli BL21, pBAD promoter, purified (Ni-NTA, Heparin-Sepharose)) MLAAKRKTKTPVLVERIDQFVGQIKEAMKSDDASRNRKIRDLWDAEVRYHFDNGRTEKTLELYIMKYRNALKAEFGPKSTPLAICNMKKLRERLNTYIARGDYPKTGVATSIVEKIERAEFNTAGRKPTVLLRIADFIAAMNGMDAKQDMQALWDAEIAIMNGRAQTTIISYITKYRNAIREAFGDDHPMLKIATGDAAMYDEARRVKMEKIANKHGALITFENYRQVLKICEDCLKSSDPLMIGIGLIGMTGRAPYEVFTQAEFSPAPYGKGVSKWSILFNGQAKTKQGEGTKFGITYEIPVLTRSETVLAAYKRLRESGQGKLWHGMSIDDFSSETRLLLRDTVFNLFEDVWPKEELPKPYGLRHLYAEVAYHNFAPPHVTKNSYFAAILGHNNNDLETSLSYMTYTLPEDRDNALARLKRTNERTLQQMATIAPVSRKG	2
TelA, protelomerase from Agrobacterium tumefaciens C58, wild type (enzyme, UniProt Q7CWV1 1-442, looked up, Protelomerase TelA, Agrobacterium tumefaciens C58, gene locus Atu_2523, full-length 442 residues; residues 102-421 ordered in the crystal models; In 4E0P and 4E0Y Tyr405 is joined to the cleaved DNA by a phosphotyrosine bond; in 4E0G orthovanadate bridges Tyr405 and the DNA ends; also called telomere resolvase; wild-type TelA; source: E. coli BL21, pBAD promoter, purified (Ni-NTA, …)) MLAAKRKTKTPVLVERIDQFVGQIKEAMKSDDASRNRKIRDLWDAEVRYHFDNGRTEKTLELYIMKYRNALKAEFGPKSTPLAICNMKKLRERLNTYIARGDYPKTGVATSIVEKIERAEFNTAGRKPTVLLRIADFIAAMNGMDAKQDMQALWDAEIAIMNGRAQTTIISYITKYRNAIREAFGDDHPMLKIATGDAAMYDEARRVKMEKIANKHGALITFENYRQVLKICEDCLKSSDPLMIGIGLIGMTGRRPYEVFTQAEFSPAPYGKGVSKWSILFNGQAKTKQGEGTKFGITYEIPVLTRSETVLAAYKRLRESGQGKLWHGMSIDDFSSETRLLLRDTVFNLFEDVWPKEELPKPYGLRHLYAEVAYHNFAPPHVTKNSYFAAILGHNNNDLETSLSYMTYTLPEDRDNALARLKRTNERTLQQMATIAPVSRKG	2
TelA R205A (enzyme, Crystallised with DNAb6; source: E. coli BL21, pBAD promoter, purified (Ni-NTA, Heparin-Sepharose)) MLAAKRKTKTPVLVERIDQFVGQIKEAMKSDDASRNRKIRDLWDAEVRYHFDNGRTEKTLELYIMKYRNALKAEFGPKSTPLAICNMKKLRERLNTYIARGDYPKTGVATSIVEKIERAEFNTAGRKPTVLLRIADFIAAMNGMDAKQDMQALWDAEIAIMNGRAQTTIISYITKYRNAIREAFGDDHPMLKIATGDAAMYDEAARVKMEKIANKHGALITFENYRQVLKICEDCLKSSDPLMIGIGLIGMTGRRPYEVFTQAEFSPAPYGKGVSKWSILFNGQAKTKQGEGTKFGITYEIPVLTRSETVLAAYKRLRESGQGKLWHGMSIDDFSSETRLLLRDTVFNLFEDVWPKEELPKPYGLRHLYAEVAYHNFAPPHVTKNSYFAAILGHNNNDLETSLSYMTYTLPEDRDNALARLKRTNERTLQQMATIAPVSRKG	2
TelA Y201A (enzyme, Crystallised with DNAb; source: E. coli BL21, pBAD promoter, purified (Ni-NTA, Heparin-Sepharose)) MLAAKRKTKTPVLVERIDQFVGQIKEAMKSDDASRNRKIRDLWDAEVRYHFDNGRTEKTLELYIMKYRNALKAEFGPKSTPLAICNMKKLRERLNTYIARGDYPKTGVATSIVEKIERAEFNTAGRKPTVLLRIADFIAAMNGMDAKQDMQALWDAEIAIMNGRAQTTIISYITKYRNAIREAFGDDHPMLKIATGDAAMADEARRVKMEKIANKHGALITFENYRQVLKICEDCLKSSDPLMIGIGLIGMTGRRPYEVFTQAEFSPAPYGKGVSKWSILFNGQAKTKQGEGTKFGITYEIPVLTRSETVLAAYKRLRESGQGKLWHGMSIDDFSSETRLLLRDTVFNLFEDVWPKEELPKPYGLRHLYAEVAYHNFAPPHVTKNSYFAAILGHNNNDLETSLSYMTYTLPEDRDNALARLKRTNERTLQQMATIAPVSRKG	2
